Test results reported in PMC5103296, “New structural insight of C-terminal region of Syntenin-1, enhancing the molecular dimerization and inhibitory function related on Syndecan-4 signaling” (Scientific Reports, 2016).
Where two headings read alike, the source gives them in different places.

Assays:
[1] = biological target: syndecan-4-YFP (UniProt P34901); test: FRET or BRET; FRET after acceptor (YFP) photobleaching in REFs expressing syndecan-4-YFP and PKM-CFP
[2] = biological target: the molecule itself; test: SEC; HiLoad 16/600 Superdex 75; 20 mM sodium phosphate, 100 mM NaCl, 0.01% NaN3, 5 mM dithiothreitol, pH 7.0; mass from calibration with standards
[3] = biological target: the molecule itself; test: as above; remark: listed apart in the source
[4] = biological target: T1, syntenin-1 PDZ2 construct containing the C-terminal tail (PDZ2C); test: as above; conditions: both partners purified
T1 chain: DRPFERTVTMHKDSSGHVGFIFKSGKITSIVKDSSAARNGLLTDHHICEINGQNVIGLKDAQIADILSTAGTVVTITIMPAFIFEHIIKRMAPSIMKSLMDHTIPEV

[5] = biological target: the molecule itself; test: crystal structure; syntenin-1 mixed with 4C2 at a 1:4 molar ratio; micro batch under oil; 0.2 M lithium sulfate monohydrate, 0.1 M Tris hydrochloride pH 8.5, 30% PEG 4000; 2.8 Å

syndecan-4-YFP, sequence (P34901 24-202): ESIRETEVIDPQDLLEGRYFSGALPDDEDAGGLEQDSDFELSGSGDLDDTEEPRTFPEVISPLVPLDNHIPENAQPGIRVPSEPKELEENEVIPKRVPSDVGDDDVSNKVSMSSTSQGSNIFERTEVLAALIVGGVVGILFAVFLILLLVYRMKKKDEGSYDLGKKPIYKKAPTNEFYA

PKC catalytic domain (PKM)-CFP (domain or fragment)
FRET efficiency [1]: 6.39%

B1: His-tagged syntenin-1 (His-STN) (domain or fragment)
chain: AEIKQGIREVILCKDQDGKIGLRLKSVDNGIFVQLVQANSPASLVGLRFGDQVLQINGENCAGWSSDKAHKVLKQAFGEKITMTIRDRPFERTVTMHKDSSGHVGFIFKSGKITSIVKDSSAARNGLLTDHHICEINGQNVIGLKDAQIADILSTAGTVVTITIMPAFIFEHIIKRMAPSIMKSLMDHTIPEV
notes: syntenin-1 (STN), recombinant construct with PDZ1, PDZ2 and the C-terminal region; printed M.W 21.8 kDa; The residue numbers (H210, V211) fit the rat protein (surmised); also called STN-1; source: recombinant, purified (Ni-NTA)
stoichiometry N [2]: 2 | stoichiometry N [3]: 2

B2: syntenin-1 PDZ2 construct containing the C-terminal tail (PDZ2C) (domain or fragment)
chain: DRPFERTVTMHKDSSGHVGFIFKSGKITSIVKDSSAARNGLLTDHHICEINGQNVIGLKDAQIADILSTAGTVVTITIMPAFIFEHIIKRMAPSIMKSLMDHTIPEV
modifications: limits not given; same start as PDZ2 through the native C-terminus, consistent with the printed 11.7 kDa; homodimer by gel filtration / limits not given; same start as PDZ2 through the native …
stoichiometry N [4]: 2

B3: syndecan-4 cytoplasmic domain peptide corresponding to the C2 region (4C2) (peptide)
peptide: APTNEFYA
notes: C2 region of the cytoplasmic domain of rat syndecan-4, residues 195-202; Seen as a dimer in the crystal of the syntenin-1/4C2 complex; also called syndecan peptide; source: synthetic peptide (Anygen Inc.)
binding result [5]: binds
